± gives the standard deviation of the averaged measurements.
Assay: total protein half-life in vivo (active degradation + dilution); higher = more stable protein
[1] = E. coli NCM3722 delta-clpP delta-lon delta-hslV, growth: N-lim chemostat, doubling time 6 h
[2] = E. coli NCM3722 delta-clpP, growth: N-lim chemostat, doubling time 6 h
[3] = E. coli NCM3722 delta-smpB, growth: N-lim chemostat, doubling time 6 h
[4] = wild type E. coli NCM3722, growth: C-lim chemostat, doubling time 6 h
[5] = wild type E. coli NCM3722, growth: N-lim chemostat, doubling time 6 h
[6] = wild type E. coli NCM3722, growth: N-lim chemostat, doubling time 12 h
[7] = wild type E. coli NCM3722, growth: P-lim chemostat, doubling time 6 h
[8] = wild type E. coli NCM3722, growth: P-lim chemostat, doubling time 12 h
[9] = E. coli NCM3722 delta-hslV, growth: N-lim chemostat, doubling time 6 h
[10] = E. coli NCM3722 delta-lon, growth: N-lim chemostat, doubling time 6 h
[11] = wild type E. coli NCM3722, growth: C-lim chemostat, doubling time 3 h
[12] = wild type E. coli NCM3722, growth: C-lim chemostat, doubling time 12 h

MLYIFRLIITVIYSILVCVFGSIYCLFSPRNPKHVATFGHMFGRLAPLFGLKVECRKPTDAESYGNAIYIANHQNNYDMVTASNIVQPPTVTVGKKSLLWIPFFGQLYWLTGNLLIDRNNRTKAHGTIAEVVNHFKKRRISIWMFPEGTRSRGRGLLPFKTGAFHAAIAAGVPIIPVCVSTTSNKINLNRLHNGLVIVEMLPPIDVSQYGKDQVRELAAHCRSIMEQKIAELDKEVAEREAAGKV
total protein half-life in vivo [1]: 5.89 h
total protein half-life in vivo [2]: 6.07 ± 0.43 h
total protein half-life in vivo [3]: 4.95 h
total protein half-life in vivo [4]: 6.42 h
total protein half-life in vivo [5]: 5.93 ± 0.29 h
total protein half-life in vivo [6]: 12.2 ± 1.3 h
total protein half-life in vivo [7]: 6.42 ± 1.2 h
total protein half-life in vivo [8]: 11.8 ± 0.39 h

MLNTLIVGASGYAGAELVTYVNRHPHMNITALTVSAQSNDAGKLISDLHPQLKGIVDLPLQPMSDISEFSPGVDVVFLATAHEVSHDLAPQFLEAGCVVFDLSGAFRVNDATFYEKYYGFTHQYPELLEQAAYGLAEWCGNKLKEANLIAVPGCYPTAAQLALKPLIDADLLDLNQWPVINATSGVSGAGRKAAISNSFCEVSLQPYGVFTHRHQPEIATHLGADVIFTPHLGNFPRGILETITCRLKSGVTQAQVAQVLQQAYAHKPLVRLYDKGVPALKNVVGLPFCDIGFAVQGEHLIIVATEDNLLKGAAAQAVQCANIRFGYAETQSLI
total protein half-life in vivo [1]: 3.94 ± 0.2 h
total protein half-life in vivo [2]: > 8 h
total protein half-life in vivo [9]: 3.34 ± 0.5 h
total protein half-life in vivo [10]: 4.24 ± 0.74 h
total protein half-life in vivo [3]: 3.24 ± 0.057 h
total protein half-life in vivo [11]: 2.67 ± 0.42 h
total protein half-life in vivo [4]: 5.7 ± 1.4 h
total protein half-life in vivo [12]: 9.58 ± 0.43 h
total protein half-life in vivo [5]: 3.24 h
total protein half-life in vivo [6]: 5.58 h
total protein half-life in vivo [7]: 5.06 ± 0.19 h
total protein half-life in vivo [8]: 9.57 ± 0.58 h

MAQEYTVEQLNHGRKVYDFMRWDYWAFGISGLLLIAAIVIMGVRGFNWGLDFTGGTVIEITLEKPAEIDVMRDALQKAGFEEPMLQNFGSSHDIMVRMPPAEGETGGQVLGSQVLKVINESTNQNAAVKRIEFVGPSVGADLAQTGAMALMAALLSILVYVGFRFEWRLAAGVVIALAHDVIITLGILSLFHIEIDLTIVASLMSVIGYSLNDSIVVSDRIRENFRKIRRGTPYEIFNVSLTQTLHRTLITSGTTLMVILMLYLFGGPVLEGFSLTMLIGVSIGTASSIYVASALALKLGMKREHMLQQKVEKEGADQPSILP [P0AG93]
total protein half-life in vivo [9]: 6.16 h
total protein half-life in vivo [10]: 5.2883 ± 0.0031 h
total protein half-life in vivo [11]: 3.4 ± 0.44 h
total protein half-life in vivo [4]: 5.67 ± 0.76 h
total protein half-life in vivo [12]: 8.4 ± 5.1 h
total protein half-life in vivo [6]: 10.2 ± 0.42 h
total protein half-life in vivo [7]: 6.06 ± 1 h

MPGLKITLLQQPLVWMDGPANLRHFDRQLEGITGRDVIVLPEMFTSGFAMEAAASSLAQDDVVNWMTAKAQQCNALIAGSVALQTESGSVNRFLLVEPGGTVHFYDKRHLFRMADEHLHYKAGNARVIVEWRGWRILPLVCYDLRFPVWSRNLNDYDLALYVANWPAPRSLHWQALLTARAIENQAYVAGCNRVGSDGNGCHYRGDSRVINPQGEIIATADAHQATRIDAELSMAALREYREKFPAWQDADEFRLW
total protein half-life in vivo [1]: 4.72 ± 0.34 h
total protein half-life in vivo [2]: 4.042 ± 0.0079 h
total protein half-life in vivo [9]: 4.46 ± 0.63 h
total protein half-life in vivo [10]: 4.4 ± 0.72 h
total protein half-life in vivo [3]: 3.9 ± 0.082 h
total protein half-life in vivo [11]: 2.74 ± 0.14 h
total protein half-life in vivo [4]: 5.22 ± 0.33 h
total protein half-life in vivo [12]: 11.7 ± 4.7 h
total protein half-life in vivo [5]: 4.42 ± 0.34 h
total protein half-life in vivo [6]: 6.49 h
total protein half-life in vivo [7]: 5.74 ± 0.18 h
total protein half-life in vivo [8]: 10.8 ± 0.35 h

MPKSVIIPAGSSAPLAPFVPGTLADGVVYVSGTLAFDQHNNVLFADDPKAQTRHVLETIRKVIETAGGTMADVTFNSIFITDWKNYAAINEIYAEFFPGDKPARFCIQCGLVKPDALVEIATIAHIAK [P0AFQ5]
total protein half-life in vivo [3]: 3.86 h

MNLHEYQAKQLFARYGLPAPVGYACTTPREAEEAASKIGAGPWVVKCQVHAGGRGKAGGVKVVNSKEDIRAFAENWLGKRLVTYQTDANGQPVNQILVEAATDIAKELYLGAVVDRSSRRVVFMASTEGGVEIEKVAEETPHLIHKVALDPLTGPMPYQGRELAFKLGLEGKLVQQFTKIFMGLATIFLERDLALIEINPLVITKQGDLICLDGKLGADGNALFRQPDLREMRDQSQEDPREAQAAQWELNYVALDGNIGCMVNGAGLAMGTMDIVKLHGGEPANFLDVGGGATKERVTEAFKIILSDDKVKAVLVNIFGGIVRCDLIADGIIGAVAEVGVNVPVVVRLEGNNAELGAKKLADSGLNIIAAKGLTDAAQQVVAAVEGK [P0A836]
total protein half-life in vivo [1]: 4.73 ± 0.42 h
total protein half-life in vivo [2]: 4.59 ± 0.34 h
total protein half-life in vivo [9]: 4.45 ± 0.2 h
total protein half-life in vivo [10]: 4.87 ± 0.23 h
total protein half-life in vivo [3]: 4.18 ± 0.058 h
total protein half-life in vivo [11]: 3.08 ± 0.061 h
total protein half-life in vivo [4]: 5.79 ± 0.26 h
total protein half-life in vivo [12]: 10.5 ± 1.7 h
total protein half-life in vivo [5]: 4.46 ± 0.14 h
total protein half-life in vivo [6]: 7.39 ± 0.36 h
total protein half-life in vivo [7]: 5.95 ± 0.15 h
total protein half-life in vivo [8]: 12.2 ± 1.2 h

MANLLNKFIMTRILAAITLLLSIVLTILVTIFCSVPIIIAGIVKLLLPVPVIWRKVSRFCDFMMYCWCEGLAVLLHLNPHLQWEVHGLEGLSKKNWYLLICNHRSWADIVVLCVLFRKHIPMNKYFLKQQLAWVPFLGLACWSLDMPFMKRYSRAYLLRHPERRGKDVETTRRSCEKFRLHPTTIVNFVEGSRFTQEKHQQTHSTFQNLLPPKAAGIAMALNVLGKQFDKLLNVTLCYPDNNRQPFFDMLSGKLTRIVVHVDLQPIADELHGDYINDKSFKRHFQQWLNSLWQEKDRLLTSLMSSQRQNK
total protein half-life in vivo [2]: 6.87 h
total protein half-life in vivo [4]: 6.03 h
total protein half-life in vivo [6]: 10.5 h
total protein half-life in vivo [8]: 13.6 h

MQLNKVLKGLMIALPVMAIAACSSNKNASNDGSEGMLGAGTGMDANGGNGNMSSEEQARLQMQQLQQNNIVYFDLDKYDIRSDFAQMLDAHANFLRSNPSYKVTVEGHADERGTPEYNISLGERRANAVKMYLQGKGVSADQISIVSYGKEKPAVLGHDEAAYSKNRRAVLVY [P0A912]
total protein half-life in vivo [1]: 6.43 ± 0.059 h
total protein half-life in vivo [2]: 6.28 ± 0.35 h
total protein half-life in vivo [9]: 6.46 ± 0.39 h
total protein half-life in vivo [10]: 6.35 ± 0.55 h
total protein half-life in vivo [3]: 5.44 ± 0.29 h
total protein half-life in vivo [11]: 3.09 ± 0.057 h
total protein half-life in vivo [4]: 5.6 ± 0.32 h
total protein half-life in vivo [12]: 10.7 ± 1.1 h
total protein half-life in vivo [5]: 6.17 ± 0.19 h
total protein half-life in vivo [6]: 12.6 ± 0.94 h
total protein half-life in vivo [7]: 5.9 ± 0.72 h
total protein half-life in vivo [8]: 11.3 ± 1.8 h
